According to US20190137523A1 (Hoffmann-La Roche, published 2019):

Target: T1, VEGF-A 121 (Peprotech), dimeric (human, UniProt P15692-9 27-147)
T1 construct: also called VEGF121
T1 sequence (looked up): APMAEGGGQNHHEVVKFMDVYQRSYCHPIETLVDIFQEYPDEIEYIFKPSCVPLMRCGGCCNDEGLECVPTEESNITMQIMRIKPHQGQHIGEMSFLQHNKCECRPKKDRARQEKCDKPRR
Assay: SPR (Biacore T200), consecutive injections. VEGF-A 121 is displayed by captured rH-4.6.1-IgG (Avastin) and saturated again with rH-4.6.1-IgG. Setup as printed: rH-4.6.1-IgG*VEGF-A*rH4.6.1*Ab1*Ab2
Experimental: The sample buffer was the system buffer supplemented with 1 mg/ml CMD (Carboxymethyldextran, Sigma #86524). The system operated at 25° C.

binding result: binds
B1: 13.7.40-Ru (antibody, V domains shown)
VH: QAQLQQPGAELVKPGASVNLSCKASGYTFTNYWIHWVSQRPGQGLEWIGEINPSDGRTYYNEKFKNKVILTVDEASTTAYLQLSSLTSEDSAVYYCTSRYYIYGVDYWGQGTTLTVSS
VL: SIVMTQTPKFLLVSPGDRVTITCKASQSVGHDVSWYRQKPGQSPKVLIYYASNRYTGVPDRFTGSGYGTDFTFTVRSVRTEDLAVYFCQQDYTSPLTFGTGTKLELKR
notes: Tested as a ruthenylated conjugate
